B1: FLAG®-tagged Atr-2 protein (73 kDa Atr-2 truncated protein encoded by pCIneoFLAGATR2) (protein)
chain: MLVAELRRVTVLWDELWLGVLLQQHMYVLRRIQQLEDEVKRVQNNNTLRKEEKIAIMREKHTALMKPIVFALEHVRSITAAPAETPHEKWFQDNYGDAIENALEKLKTPLNPAKPGSSWIPFKEIMLSLQQRAQKRASYILRLEEISPWLAAMTNTEIALPGEVSARDTVTIHSVGGTITILPTKTKPKKLLFLGSDGKSYPYLFKGLEDLHLDERIMQFLSIVNTMFATINRQETPRFHARHYSVTPLGTRSGLIQWVDGATPLFGLYKRWQQREAALQAQKAQDSYQTPQNPGIVPRPSELYYSKIGPALKTVGLSLDVSRRDWPLHVMKAVLEELMEATPPNLLAKELWSSCTTPDEWWRVTQSYARSTAVMSMVGYIIGLGDRHLDNVLIDMTTGEVVHIDYNVCFEKGKSLRVPEKVPFRMTQNIETALGVTGVEGVFRLSCEQVLHIMRRGRETLLTLLEAFVYDPLVDWTAGGEAGFAGAVYGGGGQQAESKQSKREMEREITRSLFSSRVAEIKVNWFKNRDEMLVVLPKLDGSLDEYLSLQEQLTDVEKLQGKLLEEIEFLEGAEGVDHPSHTLQHRYSEHTQLQTQQRAVQEAIQVKLNEFEQWITHYQAAFNNLEATQLASLLQEISTQMDLGPPSYVPA
In the case of B1, the “kinase activity (32P-ATP incorporation, P81 paper, Cerenkov radiation)” value (shortened to “kinase activity”) is on record as “able to phosphorylate the Atr-2 protein itself”. Also, in the data set with PHAS-1, the “kinase activity” value was “did not phosphorylate PHAS-1 or histone H1”. Besides, the “kinase activity” value with myelin basic protein was “able to phosphorylate the Atr-2 protein itself and the exogenous myelin basic protein substrate”. Moreover, the “kinase activity” value with histone H1 is reported as “did not phosphorylate PHAS-1 or histone H1”.

Source of the values: patent US20030023055.
